Source: US7662388B2, “Endogenous peptide and active subfragments thereof” (Innoventus Project AB, priority 2003, dated 2010)

Legend:
primary BCE cells [1] = test: dose response study Pep2, chemotaxis of BCE cells; format: cell-based, bovine; details: 20, 50 or 100 ng/ml, FGF-2 10 ng/ml, Zn2+-acetate
Experimental: A migration assay was performed in a modified Boyden chamber as described earlier (Auerbach et al., 1991) using micropore polycarbonate filters (8 μm thick, 8 μm pore) coated with type-1 collagen solution at 100 μg/ml (Vitrogen 100, Collagen Corp). BCE Cells were trypsinised and resuspended at 7.5×10^5 cells/ml in Dulbecco's modified essential medium (Invitrogen) containing 0.25% BSA and Trasylol at 1000 KIE. The cell suspension was added in the upper chamber and FGF-2 (10 ng/ml), and/or peptide 2 (20, 50 or 100 ng/ml) in medium containing 0.25% BSA were added to the lower chamber. The peptides were dissolved in PBS containing a 10-fold molar excess (Zn:peptide) of Zn^2+-acetate. After 5 h at 37° C., cells that had migrated through the filter were stained with Giemsa and counted using an the Easy Image Analysis software. All samples were analysed in at least six wells for each treatment and at several separate occasions.

T241 fibrosarcoma cells [2] = test: animal study Pep2, fibrosarcoma tumour growth; format: in vivo; details: 5 mg/kg/day s.c. daily, mice bearing fibrosarcoma
Experimental: Tumour study: Female, 5 week old, C57BL6/J mice (Mollegard/Bomhultgard, Denmark) were injected with 0.5×10^6 T241 fibrosarcoma cells subcutaneously (s.c.) into the left flank. Animals carrying palpable tumours were randomised (n=5-10 animals/treatment group) and received treatment with vehicle (Zn-acetate in NaCl), 5 mg/kg/day of HIS1 (=full-length HRGP) or Pep2, in a volume of 100 microliters, given as s.c. injections daily, in the right flank. The tumours were measured with a caliper once a day, in a blind procedure, and volumes were calculated by the formula […]×width^2×length. When the tumours reached the upper limit of 2 cm^3, the mice were sacrificed. The animals were anesthetised with isoflurane (Forene; Abbott) during all manipulations.

primary BCE cells [3] = test: comparative study pep2/pep3, chemotaxis; format: cell-based, bovine; details: 50 ng/ml peptide, FGF-2 10 ng/ml, Zn2+-acetate
Experimental: Primary endothelial cells were starved over night in 0.5% normal calf serum. A migration assay was performed in a modified Boyden chamber as described earlier (Auerbach et al., 1991) using micropore polycarbonate filters (8 μm thick, 8 μm pore) coated with type-1 collagen solution at 100 μg/ml (Vitrogen 100, Collagen Corp). Cells were trypsinized and resuspended at 7.5×10^5 cells/ml in Dulbecco's modified essential medium (Invitrogen) containing 0.25% BSA and Trasylol at 1000 KIE. The cell suspension was added in the upper chamber and FGF-2 (10 ng/ml), HRGP (100 ng/ml), peptide 2 or 3 (50 ng/ml) in medium containing 0.25% BSA were added to the lower chamber. The peptides were dissolved in PBS containing a 10-fold molar excess (Zn:peptide) of Zn^2+-acetate. After 5 h at 37° C., cells that had migrated through the filter were stained with Giemsa and counted using the Easy Image Analysis software. All samples were analyzed in at least six wells for each treatment. Results of the study are illustrated in FIG. 7.

[4] = test system: chicken chorioallantoic membrane (CAM); test: chicken chorioallantoic membrane (CAM) angiogenesis assay; format: in vivo; details: for growth factor-induced CAM angiogenesis (newly formed vessels): FGF-2 or VEGF-A 0.2 mg per filter, HRGP 3 mg per filter, three days
Experimental: The effect of HRGP on anglogenesis was tested in the chicken chorioallantoic membrane (CAM) assay.
The conditions for the chorioallantoic membrane (CAM) assay followed essentially a previously described procedure (Friedlander et al (1995), Dixelius et al, (2000)). FGF-2 (Boehringer Mannheim) and VEGF-A (Peprotech) was used at 0.2 mg per filter and purified pHRGP or rHRGP at 3 mg per filter. The treated CAM's were inspected in a light microscope and the score, from 0 (low) to 3 (high) was based on the number of vessel branch points. Average values for 5-6 embryos were recorded.
A filter disc soaked in vehicle or growth factor, with or without HRGP, was placed on top of the CAM in the vicinity of a large vessel and incubated for three days. Treatment of the CAM with growth factors, such as FGF-2, stimulated angiogenesis (FIG. 1C; Table 1).

T241 fibrosarcoma cells [5] = test: fibrosarcoma tumour growth in mice (HRGP); format: in vivo; details: 4 mg/kg/day s.c. daily, control PBS, 11 days
Experimental: Animal work was carried out at the local animal facility and was approved by the Uppsala University board of animal experimentation and thus performed according to the UKCCCR guidelines for the welfare of animals in experimental neoplasia (Workman et al (1988)). The mice were anesthetized with isoflurane (Forene; Abbott) during all manipulations. Female, 5 week old, C57BL6/1 mice (Mollegard/Bomhultgard, Denmark) were injected with 0.5×10^6 T241 fibrosarcoma cells subcutaneously (s.c.) into the left flank. Animals carrying palpable tumours were randomized (n=7-10 animals/treatment group) and received treatment with vehicle (PBS), 4 mg/kg/day of pHRGP or 5 mg/kg/day of human IgG or His-HRGP, given as daily subcutaneous injections in the right flank. The tumours were measured with a caliper once a day, in a blind procedure, and volumes were calculated by the formula […]. When the tumours reached the upper limit of 2 cm^3, the mice were sacrificed. Three animals in each group were perfused with 4% paraformaldehyde in PBS pH 7.4. Tumours were embedded in paraffin according to standard histological procedures and sectioned at […] thickness.
C57/bl6 mice were inoculated subcutaneously with T241 fibrosarcoma cells on their left flank and when the tumours were palpable (after 4-6 days), a daily treatment was initiated with HRGP or control (PBS; FIG. 2A, or human IgG; FIG. 2B). Endostatin was included in one study for comparison (FIG. 2B). The treatment was given as subcutaneous injections in the right flank until the size of the control tumours reached the upper limit of […] (11 days; FIG. 2A, 14 days; FIG. 2B). Injections with both pHRGP (4 mg/kg/day) and His-HRGP (5 mg/kg/day) led to a drastic reduction in tumour growth and at the time of sacrifice, the size of the tumours was reduced by 67% (FIG. 2A) and 61% (FIG. 2B) respectively, compared to control-treated animals. Endostatin treatment (25 mg/kg/day) lacked significant inhibitory effect on tumour growth in this model (32% decrease).

primary BCE cells [6] = test: chemotaxis (migration) assay in modified Boyden chamber, BCE cells; format: cell-based, bovine
Experimental: (§1) The porcine aortic endothelial (PAE) cell line overexpressing FGF receptor-1 (FGFR-1) (Wennström et al 1992) was cultured in Ham's F12/10% fetal bovine serum (FCS) and NIH 3T3 murine fibroblasts were cultured in Dulbecco's modified medium (DMEM)/10% newborn calf serum (NCS). F12, DMEM and serum were bought from Life Technologies. Primary bovine adrenal cortex capillary endothelial (BCE) cells were cultured on gelatin-coated dishes in DMEM/10% NCS and 2 ng/ml FGF-2 (Boehringer Mannheim). For chemotaxis assays, both PAE and NIH 3T3 cells were serum-starved over night in 0.1% BSA and BCE cells in 0.5% NCS. Human embryonic kidney (HEK) 293-EBNA cells were cultured in DMEM/10% FCS. Approximately every second month they were given 0.25 mg/ml G418 (Calbiochem) to ensure positive selection of the EBNA-1 expressing cells.
A migration assay was performed in a modified Boyden chamber as described earlier (Auerbach et al., 1991) using micropore polycarbonate filters (8 μm thick, 8 μm pore) coated with type-1 collagen solution at 100 μg/ml (Vitrogen 100, Collagen Corp). BCE, PAE/FGFR-1 or NIH 3T3 cells were preincubated or not with HRGP (100 ng/ml) for 30 min, trypsinised and resuspended at a concentration of 7.5×10^5 cells/ml in Dulbecco's modified essential medium (Invitrogen) containing 0.25% BSA and Trasylol at 1000 KIE. FGF-2 and VEGF-A was used at 5 ng/ml, HRGP and the protein C inhibitor (PCI) at 100 ng/ml and BSA at 0.25%. After 5 h at 37° C., migrated cells were stained with Giemsa and counted using an image analysis software (Easy Image Analysis) from Tekno Optik AB, Sweden. All samples were analysed in at least six parallel wells for each treatment.

[7] = test system: NIH 3T3 murine fibroblasts; test: chemotaxis assay in modified Boyden chamber, NIH 3T3 fibroblasts; format: cell-based; details: 100 ng/ml HRGP
Experimental: as §1
A migration assay was performed in a modified Boyden chamber as described earlier (Auerbach et al., 1991) using micropore polycarbonate filters (8 μm thick, 8 μm pore) coated with type-1 collagen solution at 100 μg/ml (Vitrogen 100, Collagen Corp). […] After 5 h at 37° C., migrated cells were stained with Giemsa and counted using an image analysis software (Easy Image Analysis) from Tekno Optik AB, Sweden. All samples were analysed in at least six parallel wells for each treatment.

“Pep2: amino acid subfragment of 35 amino acids, amino acids 330-364 of mature human HRGP (DLHPHKHHSHEQHPHGHHPHAHHPHEHDTHRQHPH; listed as Homo sapiens)” was tested, and the “FGF-2-induced chemotaxis of primary BCE cells, dose response” value (primary BCE cells [1]) was “dose-dependently inhibited”, the “tumour growth (tumour volume)” value (T241 fibrosarcoma cells [2]) was “inhibits tumor growth” and the “FGF-2-induced chemotaxis of primary BCE cells” value (primary BCE cells [3]) was “inhibited”.

With “Pep3: 25 amino acid subfragment of the central region, amino acids 365-389 of mature human HRGP, described in WO02/064621 (GHHPHGHHPHGHHPHGHHPHGHHPH; listed as Homo sapiens) [reference compound]” the “FGF-2-induced chemotaxis of primary BCE cells” value (primary BCE cells [3]; listed as SEQ.ID.NO:4) was “not to be active for inhibiting angiogenesis”.

B1: pHRGP: HRGP purified from human plasma (protein)
chain: VSPTDCSAVEPEAEKALDLINKRRRDGYLFQLLRIADAHLDRVENTTVYYLVLDVQESDCSVLSRKYWNDCEPPDSRRPSEIVIGQCKVIATRHSHESQDLRVIDFNCTTSSVSSALANTKDSPVLIDFFEDTERYRKQANKALEKYKEENDDFASFRVDRIERVARVRGGEGTGYFVDFSVRNCPRHHFPRHPNVFGFCRADLFYDVEALDLESPKNLVINCEVFDPQEHENINGVPPHLGHPFHWGGHERSSTTKPPFKPHGSRDHHHPHKPHEHGPPPPPDERDHSHGPPLPQGPPPLLPMSCSSCQHATFGTNGAQRHSHNNNSSDLHPHKHHSHEQHPHGHHPHAHHPHEHDTHRQHPHGHHPHGHHPHGHHPHGHHPHGHHPHCHDFQDYGPCDPPPHNQGHCCHGHGPPPGHLRRRGPGKGPRPFHCRQIGSVYRLPPLRKGEVLPLPEANFPSFPLPHHKHPLKPDNQPFPQSVSESCPGKFKSGFPQVSMFFTHTFPK
With B1 the “growth factor-induced CAM angiogenesis (newly formed vessels)” value [4] was “efficient suppression of newly formed vessels”, the “effect on pre-established vessels of the CAM” value ([4]; FGF-2 or VEGF-A together with pHRGP, 3 mg per filter) was “remained unaffected” and the “reduction of tumour size compared to control-treated animals at sacrifice” value (T241 fibrosarcoma cells [5]) was 67%.

B2: rHRGP: recombinant HRGP produced in HEK-293-EBNA cells without a His-tag (protein)
chain: B1 chain
For B2, the “FCS-induced chemotaxis of BCE cells” value (primary BCE cells [6]; 100 ng/ml HRGP) was “not inhibited”, the “VEGF-A-induced chemotaxis of BCE cells” value (primary BCE cells [6]; 100 ng/ml HRGP, VEGF-A 5 ng/ml) was “attenuated” and the “FGF-2-induced chemotaxis of BCE cells” value (primary BCE cells [6]; 100 ng/ml protein, FGF-2 5 ng/ml, 5 h) was “completely blocked”. For the same molecule, the “FGF-2-induced chemotaxis of NIH 3T3 murine fibroblasts” value [7] was “not affected” and the “growth factor-induced CAM angiogenesis (newly formed vessels)” value [4] was “The same result was obtained”.
